Substrate in data set [1]: Nc1ncnc2c1ncn2[C@@H]1O[C@H](COP(=O)(O)O)[C@@H](OP(=O)(O)O)[C@H]1O
Briefly: Reverse-physiological reaction of βAST-IV (PAPS from PAP and p-nitrophenyl sulfate). In kind it is biochemical, rat. The conditions noted are these: other: 10 mM p-nitrophenyl sulfate, pH 7.0, 25° C., FIG. 6 legend. The method, then: All capillary zone electrophoresis (CZE) was run in 0.23 M borate in running buffer at pH 7.8. The column was pre-washed with H2 O (1 min), 1 N NaOH (1 min), and running buffer (2 min). The sample was pressure injected at 20 psi sec and electrophoresis was run with 20.0 kV (- to +) at 20° C. with detection at 260 nm. CZE of 1 mM standards PAPS, PAP, and 3'-adenosine monophosphate (3'-AMP) were run to determine retention times. The reverse-physiological reaction assay mixture, a 500 μL solution containing 50 mM bis-tris propane-HCl buffer at pH 7.0, 1 mM 2-mercaptoethanol, 10 mM p-nitrophenyl sulfate, and 1 mM PAP at 25° C., was subjected to CZE prior to addition of enzyme (t=0). 5 mU βAST-IV was added and CZE was repeated 30 minutes after initiation. The reaction was then diluted 100-fold and CZE was run again. A 2.0 μL internal standard of 10 mM PAPS was added, and CZE was repeated.
βAST-IV activity in the reverse-physiological reaction was determined at 25° C. with a total volume of 500 μL. The reverse-physiological assay above was used with varying PAP concentration (15.6, 31.3, 62.5, 125, 250, 500 μM). Measurement of initial velocity was conducted over 10 seconds at 400 nm, and an extinction coefficient of 1064 was used to calculate p-nitrophenol concentration at pH 7.0. […]

Substrate in data set [2]: CC(=O)N[C@H]1[C@H](O[C@H]2[C@H](O)[C@@H](NC(C)=O)C(O)O[C@@H]2CO)O[C@H](CO)[C@@H](O[C@@H]2O[C@H](CO)[C@@H](O)[C@H](O)[C@H]2NC(C)=O)[C@@H]1O
In words: purified protein, by the assay type. The conditions noted are these: pH 7.0.

Substrate in data set [3]: CC(=O)N[C@H]1[C@H](O[C@H]2[C@H](O)[C@@H](NC(C)=O)[C@H](O[C@H]3[C@H](O)[C@@H](NC(C)=O)C(O)O[C@@H]3CO)O[C@@H]2CO)O[C@H](CO)[C@@H](O[C@@H]2O[C@H](CO)[C@@H](O[C@@H]3O[C@H](CO)[C@@H](O)[C@H](O)[C@H]3NC(C)=O)[C@H](O)[C@H]2NC(C)=O)[C@@H]1O
Briefly: Continuous spectrophotometric coupled-enzyme assay of NodST with βAST-IV PAPS regeneration. The class given is biochemical, Rhizobium melioti. The conditions noted are these: other: coupled assay; pH 7.0.

Substrate in data set [4]: CC(=O)N[C@H]1[C@H](O[C@H]2[C@H](O)[C@@H](NC(C)=O)C(O)O[C@@H]2CO)O[C@H](CO)[C@@H](O[C@@H]2O[C@H](CO)[C@@H](O[C@@H]3O[C@H](CO)[C@@H](O)[C@H](O)[C@H]3NC(C)=O)[C@H](O)[C@H]2NC(C)=O)[C@@H]1O
The data set is described as above. The class given is biochemical, Rhizobium melioti. The conditions noted are these: other: apparent value, coupled assay, 20 μM PAPS, pH 7.0.

[5] abbreviates: other: apparent value, coupled assay, 20 μM PAPS.

Our source for the Km and kcat values is patent US6255088A, “Enzymatic sulfation of biomolecules” (The Scripps Research Institute, priority 1999, dated 2001).

B1: βAST-IV (Rattus norvegicus) (protein)
chain: MEFSRPPLVHVKGIPLIKYFAETIGPLQNFTAWPDDLLISTYPKSGTTWMSEILDMIYQGGKLEKCGRAPIYARVPFLEFKCPGVPSGLETLEETPAPRLLKTHLPLSLLPQSLLDQKVKVIYIARNAKDVVVSYYNFYNMAKLHPDPGTWDSFLENFMDGEVSYGSWYQHVKEWWELRHTHPVLYLFYEDIKENPKREIKKILEFLGRSLPEETVDSIVHHTSFKKMKENCMTNYTTIPTEIMDHNVSPFMRKGTTGDWKNTFTVAQNERFDAHYAKTMTDCDFKFRCEL
notes: made in house; host or cells: E. coli BL21(DE3)
Turning to B1, the Km in data set [1] was 26.4 ± 3.4 µM.

B2: NodST (Sinorhizobium meliloti 1021) (protein)
chain: MTHSTLPPQPFAILAMPRTGTHYLEELVNEHPNVLSNGELLNTYDTNWPDKERLLLSDRELLERAFLRYPPHSDKKVTHVGCKINEPQFQERPSFFAELTAWPGLKVILVIRRNTLESLRSFVQARQTRQWLKFKSDSSAPPPPVMLPFATCEAYFKAADDFHARVVYAFDSSRIRLIEYERLLRDPVPCVATVLDFLGAPALQLADRGILRRQETRPLDQTVRNFHELRVHFANGPYARFFELAND
For B2, the Km stood at 243 µM in data set [2] (other: 20, 40 and 100 μM PAPS, all three within 10% variation, 3.0 mU NodST); 103 µM in data set [2] (setting [5]); 98.1 μμM in data set [3]; 20.4 ± 3.6 µM in data set [4]. The catalytic constant (kcat) in data set [2] (setting [5]) turned out to be 0.458 s⁻¹; in data set [4], 0.328 ± 0.013 s⁻¹.
